Consider four molecules from article PMC6179379, “The IgM pentamer is an asymmetric pentagon with an open groove that binds the AIM protein” (Science Advances, 2018).

Where “and” joins values, the source holds several entries; their conditions need not be identical. Identical values can stand only once.

In data set [1] the target is FLAG-tagged mouse IgM-Fc Cys414Ser variant (mouse). The data set is described as follows: negative-stain EM; purified IgM-Fc or IgM made with the J chain, about 15 μg/ml, 1% uranyl acetate; reference-free 2D class averages (RELION).
Data set [2] has the same target. Briefly: Western blotting after non-reducing SDS-PAGE; supernatant of HEK293T cells co-expressing FLAG-IgM-Fc and HA-J chain; anti-FLAG and anti-HA blots, reducing and nonreducing conditions.
Data set [3] addresses FLAG-tagged recombinant human IgM-Fc (human). Briefly: negative-stain EM; purified IgM-Fc or IgM made with the J chain, about 15 μg/ml, 1% uranyl acetate; reference-free 2D class averages (RELION).
Data set [4] deals with the molecule itself. Described as above.
Data set [5] deals with the molecule itself. The data set is described as follows: negative-stain EM; purified FLAG-tagged mouse IgM-Fc oligomers made in the absence of the J chain; reference-free 2D class averages.
Data set [6] deals with T1, Mouse IgM-Fc pentamer with HA-tagged J chain (mouse, UniProt P01872 1-454; P01592 22-159).
T1 construct: Mouse immunoglobulin M heavy chain, Fc region: Cμ2-Cμ3-Cμ4 and the short tail; Mouse immunoglobulin J (joining) chain; as m2; also called Fc-pentamer/J-HA; IgM-Fc/J-HA; source: HEK293T transfected with pCAGGS-FLAG-mouse Fc and pCAGGS-mouse J chain-HA, co-cultured with cells expressing AIM-HA; not shown: FLAG, N-terminal, kept; copies: 10 + 1
T1 sequence (looked up) 1: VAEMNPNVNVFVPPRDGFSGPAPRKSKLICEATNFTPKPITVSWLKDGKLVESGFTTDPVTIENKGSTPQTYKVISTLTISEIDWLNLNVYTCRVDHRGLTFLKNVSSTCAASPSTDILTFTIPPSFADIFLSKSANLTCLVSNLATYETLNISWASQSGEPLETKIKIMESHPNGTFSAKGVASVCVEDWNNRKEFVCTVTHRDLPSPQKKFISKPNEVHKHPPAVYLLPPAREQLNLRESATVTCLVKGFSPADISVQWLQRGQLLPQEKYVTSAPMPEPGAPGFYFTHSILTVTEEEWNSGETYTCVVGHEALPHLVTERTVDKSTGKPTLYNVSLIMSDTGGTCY
T1 sequence (looked up) 2: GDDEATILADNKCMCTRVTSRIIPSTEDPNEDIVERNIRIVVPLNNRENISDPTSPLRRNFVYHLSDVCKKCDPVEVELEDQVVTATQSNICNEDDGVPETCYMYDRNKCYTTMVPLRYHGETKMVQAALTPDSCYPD
Briefly: co-IP; complex from co-culture supernatant purified on ANTI-FLAG M2 Affinity Gel, then on an anti-AIM antibody column; eluate blotted with anti-HA in a reducing condition, bands quantified with ImageJ; five experiments. The settings on record: partners not purified.

In general, stoichiometry N refers to a count of units in the complex or per binding partner.

Consider “FLAG-tagged mouse IgM-Fc Cys414Ser variant (domain or fragment)”, for which the stoichiometry N in data set [1] was 4 and 5; in data set [2], 4 and 5.
In the case of “FLAG-tagged recombinant human IgM-Fc (domain or fragment)”, the stoichiometry N in data set [3] amounted to 5.

B1: FLAG-tagged recombinant mouse IgM-Fc (Cμ2 to tail) (domain or fragment, UniProt P01872 1-454, looked up)
chain: VAEMNPNVNVFVPPRDGFSGPAPRKSKLICEATNFTPKPITVSWLKDGKLVESGFTTDPVTIENKGSTPQTYKVISTLTISEIDWLNLNVYTCRVDHRGLTFLKNVSSTCAASPSTDILTFTIPPSFADIFLSKSANLTCLVSNLATYETLNISWASQSGEPLETKIKIMESHPNGTFSAKGVASVCVEDWNNRKEFVCTVTHRDLPSPQKKFISKPNEVHKHPPAVYLLPPAREQLNLRESATVTCLVKGFSPADISVQWLQRGQLLPQEKYVTSAPMPEPGAPGFYFTHSILTVTEEEWNSGETYTCVVGHEALPHLVTERTVDKSTGKPTLYNVSLIMSDTGGTCY
notes: Mouse immunoglobulin M heavy chain, Fc region: Cμ2-Cμ3-Cμ4 and the short tail (19 amino acids); also called mouse Fc; Fc monomer; source: HEK293T, transfected (pCAGGS-FLAG-IgM-Fc, with or without the J chain plasmid), in culture supernatant; not shown: FLAG, N-terminal, kept
Regarding B1, the results for the “stoichiometry N” value in data set [4] and in data set [5] were 5 and 6, respectively.

B2: HA-tagged mouse AIM (natural protein, UniProt Q9QWK4 22-352, looked up)
chain: ESPTKVQLVGGAHRCEGRVEVEHNGQWGTVCDDGWDRRDVAVVCRELNCGAVIQTPRGASYQPPASEQRVLIQGVDCNGTEDTLAQCELNYDVFDCSHEEDAGAQCENPDSDLLFIPEDVRLVDGPGHCQGRVEVLHQSQWSTVCKAGWNLQVSKVVCRQLGCGRALLTYGSCNKNTQGKGPIWMGKMSCSGQEANLRSCLLSRLENNCTHGEDTWMECEDPFELKLVGGDTPCSGRLEVLHKGSWGSVCDDNWGEKEDQVVCKQLGCGKSLHPSPKTRKIYGPGAGRIWLDDVNCSGKEQSLEFCRHRLWGYHDCTHKEDVEVICTDFDV
notes: Mouse AIM (CD5L), secreted; also called AIM-HA; source: HEK293T, transfected (pCAGGS-AIM-HA), co-cultured with cells expressing FLAG-mouse Fc and J chain-HA; culture supernatant, co-purified with the Fc pentamer
For the molecule B2, in data set [6], the “ratio of HA signal, AIM-HA versus J-HA” value was 1.3 ± 0.12 J-HA signal per AIM-HA signal and the “stoichiometry N” value was 1 AIM per pentamer.
